Results: patent US20150368311A1 (Sanofi, published 2015)
Non-standard residues stand in square brackets, D forms with d. No end group written: not given here. Ala(4-thiazolyl) = N[C@@H](Cc1cscn1)C(=O)O; 1Nal = N[C@@H](Cc1cccc2ccccc12)C(=O)O; Phe(2-F) = N[C@@H](Cc1ccccc1F)C(=O)O; Chg = N[C@H](C(=O)O)C1CCCCC1; Nle = CCCC[C@H](N)C(=O)O

Columns and labels:
human GLP-1 receptor = human GLP-1 receptor (human, UniProt P43220 24-463); test: cell-based or functional assay
human glucagon receptor = human glucagon receptor (human, UniProt P47871 26-477); test: cell-based or functional assay
human glucagon receptor, sequence (P47871 26-477): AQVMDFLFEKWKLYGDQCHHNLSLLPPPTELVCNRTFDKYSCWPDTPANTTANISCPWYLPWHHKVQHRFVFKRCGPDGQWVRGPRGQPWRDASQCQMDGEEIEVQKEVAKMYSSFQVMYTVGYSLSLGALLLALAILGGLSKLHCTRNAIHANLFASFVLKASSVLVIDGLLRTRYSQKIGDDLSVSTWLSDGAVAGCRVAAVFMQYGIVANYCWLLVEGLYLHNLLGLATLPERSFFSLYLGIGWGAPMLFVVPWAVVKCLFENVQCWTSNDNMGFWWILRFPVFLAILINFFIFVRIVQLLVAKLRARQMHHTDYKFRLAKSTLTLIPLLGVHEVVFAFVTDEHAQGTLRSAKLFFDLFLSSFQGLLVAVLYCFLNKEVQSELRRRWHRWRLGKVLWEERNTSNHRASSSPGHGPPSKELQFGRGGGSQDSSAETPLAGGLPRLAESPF

Binder	EC50 hGLP-1 R [pM], cAMP formation (human GLP-1 receptor)	EC50 hGLUC R [pM], cAMP formation (human glucagon receptor)
XSQGTFTSDISKQXESRRAQEFIEWLLATGPESGAPPPS (Tza (L-4-thiazolylalanine) at position 1; Nle at position 14; C-terminal -OH) [SEQ ID NO: 14]	52900 pM	1.2 pM
XSQGTFTSDYSKQXESRRAQEFIEWLLATGPESGAPPPS (Tza (L-4-thiazolylalanine) at position 1; Nle at position 14; C-terminal -OH) [SEQ ID NO: 17]	6940 pM	1 pM
[Ala(4-thiazolyl)]SQGTFTSD[Phe(2-F)]SKQLESRRAQDFIEWLLATGPESGAPPPS-OH (N-terminus assumed; SMILES CC[C@H](C)[C@H](NC(=O)[C@H](Cc1ccccc1)NC(=O)[C@H](CC(=O)O)NC(=O)[C@H](CCC(N)=O)NC(=O)[C@H](C)NC(=O)[C@H](CCCNC(=N)N)NC(=O)[C@H](CCCNC(=N)N)NC(=O)[C@H](CO)NC(=O)[C@H](CCC(=O)O)NC(=O)[C@H](CC(C)C)NC(=O)[C@H](CCC(N)=O)NC(=O)[C@H](CCCCN)NC(=O)[C@H](CO)NC(=O)[C@H](Cc1ccccc1F)NC(=O)[C@H](CC(=O)O)NC(=O)[C@H](CO)NC(=O)[C@@H](NC(=O)[C@H](Cc1ccccc1)NC(=O)[C@@H](NC(=O)CNC(=O)[C@H](CCC(N)=O)NC(=O)[C@H](CO)NC(=O)[C@@H](N)Cc1cscn1)[C@@H](C)O)[C@@H](C)O)C(=O)N[C@@H](CCC(=O)O)C(=O)N[C@@H](Cc1c[nH]c2ccccc12)C(=O)N[C@@H](CC(C)C)C(=O)N[C@@H](CC(C)C)C(=O)N[C@@H](C)C(=O)N[C@H](C(=O)NCC(=O)N1CCC[C@H]1C(=O)N[C@@H](CCC(=O)O)C(=O)N[C@@H](CO)C(=O)NCC(=O)N[C@@H](C)C(=O)N1CCC[C@H]1C(=O)N1CCC[C@H]1C(=O)N1CCC[C@H]1C(=O)N[C@@H](CO)C(=O)O)[C@@H](C)O) [SEQ ID NO: 21]	49700 pM	1.4 pM
[Ala(4-thiazolyl)]SQGTFTSDVSKQLESRRAQEFIEWLLAGGPESGAPPPS-OH (N-terminus assumed; SMILES CC[C@H](C)[C@H](NC(=O)[C@H](Cc1ccccc1)NC(=O)[C@H](CCC(=O)O)NC(=O)[C@H](CCC(N)=O)NC(=O)[C@H](C)NC(=O)[C@H](CCCNC(=N)N)NC(=O)[C@H](CCCNC(=N)N)NC(=O)[C@H](CO)NC(=O)[C@H](CCC(=O)O)NC(=O)[C@H](CC(C)C)NC(=O)[C@H](CCC(N)=O)NC(=O)[C@H](CCCCN)NC(=O)[C@H](CO)NC(=O)[C@@H](NC(=O)[C@H](CC(=O)O)NC(=O)[C@H](CO)NC(=O)[C@@H](NC(=O)[C@H](Cc1ccccc1)NC(=O)[C@@H](NC(=O)CNC(=O)[C@H](CCC(N)=O)NC(=O)[C@H](CO)NC(=O)[C@@H](N)Cc1cscn1)[C@@H](C)O)[C@@H](C)O)C(C)C)C(=O)N[C@@H](CCC(=O)O)C(=O)N[C@@H](Cc1c[nH]c2ccccc12)C(=O)N[C@@H](CC(C)C)C(=O)N[C@@H](CC(C)C)C(=O)N[C@@H](C)C(=O)NCC(=O)NCC(=O)N1CCC[C@H]1C(=O)N[C@@H](CCC(=O)O)C(=O)N[C@@H](CO)C(=O)NCC(=O)N[C@@H](C)C(=O)N1CCC[C@H]1C(=O)N1CCC[C@H]1C(=O)N1CCC[C@H]1C(=O)N[C@@H](CO)C(=O)O) [SEQ ID NO: 9]	12200 pM	2.2 pM
[Ala(4-thiazolyl)]SQGTFTSD[1Nal]SKQ[Nle]ESRRAQDFIEWLLATGPESGAPPPS-OH (N-terminus assumed; SMILES CCCC[C@H](NC(=O)[C@H](CCC(N)=O)NC(=O)[C@H](CCCCN)NC(=O)[C@H](CO)NC(=O)[C@H](Cc1cccc2ccccc12)NC(=O)[C@H](CC(=O)O)NC(=O)[C@H](CO)NC(=O)[C@@H](NC(=O)[C@H](Cc1ccccc1)NC(=O)[C@@H](NC(=O)CNC(=O)[C@H](CCC(N)=O)NC(=O)[C@H](CO)NC(=O)[C@@H](N)Cc1cscn1)[C@@H](C)O)[C@@H](C)O)C(=O)N[C@@H](CCC(=O)O)C(=O)N[C@@H](CO)C(=O)N[C@@H](CCCNC(=N)N)C(=O)N[C@@H](CCCNC(=N)N)C(=O)N[C@@H](C)C(=O)N[C@@H](CCC(N)=O)C(=O)N[C@@H](CC(=O)O)C(=O)N[C@@H](Cc1ccccc1)C(=O)N[C@H](C(=O)N[C@@H](CCC(=O)O)C(=O)N[C@@H](Cc1c[nH]c2ccccc12)C(=O)N[C@@H](CC(C)C)C(=O)N[C@@H](CC(C)C)C(=O)N[C@@H](C)C(=O)N[C@H](C(=O)NCC(=O)N1CCC[C@H]1C(=O)N[C@@H](CCC(=O)O)C(=O)N[C@@H](CO)C(=O)NCC(=O)N[C@@H](C)C(=O)N1CCC[C@H]1C(=O)N1CCC[C@H]1C(=O)N1CCC[C@H]1C(=O)N[C@@H](CO)C(=O)O)[C@@H](C)O)[C@@H](C)CC) [SEQ ID NO: 19]	6640 pM	0.7 pM
[Ala(4-thiazolyl)]SQGTFTSD[Phe(2-F)]SKQ[Nle]ESRRAQDFIEWLLATGPESGAPPPS-OH (N-terminus assumed; SMILES CCCC[C@H](NC(=O)[C@H](CCC(N)=O)NC(=O)[C@H](CCCCN)NC(=O)[C@H](CO)NC(=O)[C@H](Cc1ccccc1F)NC(=O)[C@H](CC(=O)O)NC(=O)[C@H](CO)NC(=O)[C@@H](NC(=O)[C@H](Cc1ccccc1)NC(=O)[C@@H](NC(=O)CNC(=O)[C@H](CCC(N)=O)NC(=O)[C@H](CO)NC(=O)[C@@H](N)Cc1cscn1)[C@@H](C)O)[C@@H](C)O)C(=O)N[C@@H](CCC(=O)O)C(=O)N[C@@H](CO)C(=O)N[C@@H](CCCNC(=N)N)C(=O)N[C@@H](CCCNC(=N)N)C(=O)N[C@@H](C)C(=O)N[C@@H](CCC(N)=O)C(=O)N[C@@H](CC(=O)O)C(=O)N[C@@H](Cc1ccccc1)C(=O)N[C@H](C(=O)N[C@@H](CCC(=O)O)C(=O)N[C@@H](Cc1c[nH]c2ccccc12)C(=O)N[C@@H](CC(C)C)C(=O)N[C@@H](CC(C)C)C(=O)N[C@@H](C)C(=O)N[C@H](C(=O)NCC(=O)N1CCC[C@H]1C(=O)N[C@@H](CCC(=O)O)C(=O)N[C@@H](CO)C(=O)NCC(=O)N[C@@H](C)C(=O)N1CCC[C@H]1C(=O)N1CCC[C@H]1C(=O)N1CCC[C@H]1C(=O)N[C@@H](CO)C(=O)O)[C@@H](C)O)[C@@H](C)CC) [SEQ ID NO: 18]	25800 pM	3.1 pM
[Ala(4-thiazolyl)]SQGTFTSD[Chg]SKQ[Nle]ESRRAQDFIEWLLATGPESGAPPPS-OH (N-terminus assumed; SMILES CCCC[C@H](NC(=O)[C@H](CCC(N)=O)NC(=O)[C@H](CCCCN)NC(=O)[C@H](CO)NC(=O)[C@@H](NC(=O)[C@H](CC(=O)O)NC(=O)[C@H](CO)NC(=O)[C@@H](NC(=O)[C@H](Cc1ccccc1)NC(=O)[C@@H](NC(=O)CNC(=O)[C@H](CCC(N)=O)NC(=O)[C@H](CO)NC(=O)[C@@H](N)Cc1cscn1)[C@@H](C)O)[C@@H](C)O)C1CCCCC1)C(=O)N[C@@H](CCC(=O)O)C(=O)N[C@@H](CO)C(=O)N[C@@H](CCCNC(=N)N)C(=O)N[C@@H](CCCNC(=N)N)C(=O)N[C@@H](C)C(=O)N[C@@H](CCC(N)=O)C(=O)N[C@@H](CC(=O)O)C(=O)N[C@@H](Cc1ccccc1)C(=O)N[C@H](C(=O)N[C@@H](CCC(=O)O)C(=O)N[C@@H](Cc1c[nH]c2ccccc12)C(=O)N[C@@H](CC(C)C)C(=O)N[C@@H](CC(C)C)C(=O)N[C@@H](C)C(=O)N[C@H](C(=O)NCC(=O)N1CCC[C@H]1C(=O)N[C@@H](CCC(=O)O)C(=O)N[C@@H](CO)C(=O)NCC(=O)N[C@@H](C)C(=O)N1CCC[C@H]1C(=O)N1CCC[C@H]1C(=O)N1CCC[C@H]1C(=O)N[C@@H](CO)C(=O)O)[C@@H](C)O)[C@@H](C)CC) [SEQ ID NO: 20]	38900 pM	3.8 pM
[Ala(4-thiazolyl)]SQGTFTSDFSKQ[Nle]ESRRAQDFIEWLLATGPESGAPPPS-OH (N-terminus assumed; SMILES CCCC[C@H](NC(=O)[C@H](CCC(N)=O)NC(=O)[C@H](CCCCN)NC(=O)[C@H](CO)NC(=O)[C@H](Cc1ccccc1)NC(=O)[C@H](CC(=O)O)NC(=O)[C@H](CO)NC(=O)[C@@H](NC(=O)[C@H](Cc1ccccc1)NC(=O)[C@@H](NC(=O)CNC(=O)[C@H](CCC(N)=O)NC(=O)[C@H](CO)NC(=O)[C@@H](N)Cc1cscn1)[C@@H](C)O)[C@@H](C)O)C(=O)N[C@@H](CCC(=O)O)C(=O)N[C@@H](CO)C(=O)N[C@@H](CCCNC(=N)N)C(=O)N[C@@H](CCCNC(=N)N)C(=O)N[C@@H](C)C(=O)N[C@@H](CCC(N)=O)C(=O)N[C@@H](CC(=O)O)C(=O)N[C@@H](Cc1ccccc1)C(=O)N[C@H](C(=O)N[C@@H](CCC(=O)O)C(=O)N[C@@H](Cc1c[nH]c2ccccc12)C(=O)N[C@@H](CC(C)C)C(=O)N[C@@H](CC(C)C)C(=O)N[C@@H](C)C(=O)N[C@H](C(=O)NCC(=O)N1CCC[C@H]1C(=O)N[C@@H](CCC(=O)O)C(=O)N[C@@H](CO)C(=O)NCC(=O)N[C@@H](C)C(=O)N1CCC[C@H]1C(=O)N1CCC[C@H]1C(=O)N1CCC[C@H]1C(=O)N[C@@H](CO)C(=O)O)[C@@H](C)O)[C@@H](C)CC) [SEQ ID NO: 13]	32100 pM	3.1 pM
